Test results: the nanobody polyreactivity screen of Harvey et al. (2022)

Assay: yeast display, Sf9 membrane polyspecificity reagent, FACS + sequencing; frameworks hold sequencing errors
In short: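 Genes from sorted yeast were amplified by colony PCR, read by MiSeq 2 × 250 sequencing and filtered on CDR length. These cells carried a synthetic nanobody library in Saccharomyces cerevisiae BJ5465 and were sorted by FACS into low and high (top ~1%) gates on anti-HA and streptavidin fluorescence. Polyreactivity is labelled according to the gate of origin.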

Sequence | polyreactivity (PSR sort gate)
QVQLVESGGGLVQAGGSLRLSSAASGRIFRPYAMGWYRPAPGKERELVAIRKSTGSTYYADSVKGRFTISRDNAKITVYLQMNSLKPEHTAVYYCAAPRDWDAGDYWGQGTQVTVSS | high polyreactivity
QVQLVESGGGLVQAGGSLRLSSAASGRIFSRYTMGWYRQAPGKERELVAAISWIGTRTYYADSVKGRFTISRDNAKNTVYLQMNSLKPEDTAVYYCNAVFGGYYGYVSNYKFDYWGHGTQVTVSS | high polyreactivity
QVQLVESGGGLVQAGGSLRLSSAASGRIFWPNTIGWYRQAPGKERELVAAISWSGGSTYYADSVKGRFTISRDNAKNTVYLQMNSLIPEDTAVYYFNARYPNTRKYDYWGQGTQVTVSS | high polyreactivity
QVQLVESGGGLVQAGGSLRLSSAASGRIFYLYAMGWYRQAPVKERELVAGITSGGRTNYADSVKGRFTISRDNAKNTFFLQMNSLKPEDTAVYYCAAYYWGLYSGYYWRQGTQVTVSS | high polyreactivity
QVQLVESGGGLVQAGGSLRLSSAASGRIFYPYTIGWYRQAPGKERELVAAISSTGRTNYADSVKGRFTISRDNAKNTVYLQMNSVKPEDTAVYYCAKGFRKYSLGPPGNDYWGQGTQVTVSS | high polyreactivity
QVQLVESGGGLVQAGGSLRLSSAASGRIFYRNAMGWYRQAPGKEREMVAAINWSGGSTYYADSVKGRFTISRDNAKNSVYLQMNSLKPEDTAVYYCAAKPGKTPLTGDRGPYDTGYGYWGQGTQVTVSS | low polyreactivity
QVQLVESGGGLVQAGGSLRLSSAASGRIFYRNAMGWYRQAPGKEREMVAAIRGSGGRTYYADSVKGRFTISRDNAKYTVYLQMISLKPEDTAVYYCAAYGYYVEHPRGLSGPYDDDYWGQGTQVTVSS | low polyreactivity
QVQLVESGGGLVQAGGSLRLSSAASGRIFYSNAMGWYRQAPGKERELVAAITRSGGGTYYADSVKGRFTISSDNAKNTVYLLMNSLKPEDTAVYYCAAIYNWWGLGSLYYGSNYWGQGTQVTVSS | high polyreactivity
QVQLVESGGGLVQAGGSLRLSSAASGRILPVNTMGWYRQAPGKERELVAVITRSGGRTYYADSVKGRFTISRDNAKNTVYLQMNSLKPEDTAVYYCAADVGFRWYRYTAGPLEYDYWGQGTQVTVSS | high polyreactivity
QVQLVESGGGLVQAGGSLRLSSAASGRTFAVNAMGSYRQAPGKERELLAAISQRAGRTYYADSVKGRFTISRDNEKNTVYLQMNSLKPEDTAVYYCNVVGFRSRVGSRGYWGLGTQVTVSS | high polyreactivity
QVQLVESGGGLVQAGGSLRLSSAASGRTFIVYAMGWYRQQPGKERELVARISSGSRTSYADSVKGRFTISRDNAKNTVYLQMNSLKPEDTAVYYCAKSRVIKYEFDYWGQGTQVTVSS | low polyreactivity
QVQLVESGGGLVQAGGSLRLSSAASGRTFPIYAMGWYRQAPGKERELVATITLNDGNTYYADSVKGRFTISRDNAKNTVYLQMNSLKPEDTAVYYCAAKGGWPWHYHYQKNSEYDYWGQGTQVTVSS | low polyreactivity
QVQLVESGGGLVQAGGSLRLSSAASGRTFRYYTMGWYRQAPGKEREFVAAISSTGGTYYADSVKGRFTISRDNAKNNVYLQMNSLKPEVTAVYYCAATFIQVVVNVELYDYDYWGQGTQVTVSS | low polyreactivity
QVQLVESGGGLVQAGGSLRLSSAASGRTFYRYVMGWYRQAPGKERELVADITRSGGSTYYADSVKGRFTISRDNAKNTVYLQMNSLKPEDTAVYYCAAEFLSSVHVRGMDYWGQGTQVTVSS | high polyreactivity
QVQLVESGGGLVQAGGSLRLSSAASGRTTKVYAMGWYRQGPGKPRELVARITSSGVRRYYADSVKGRFTISRDNAKNTVYLHMNSLKPEDTAVYYCGKDARALWLHSGIYDYSGQGTQVTVSS | low polyreactivity
QVQLVESGGGLVQAGGSLRLSSAASGSIFARYAMGWYRPAPVKERELVAAISGRGGSTYYADSVKGRFTISRDNAKNTVYLQMNSLKPEDTAVYYCNAVGHTSIRRALDILDYWGQGPQVTVSS | high polyreactivity
QVQLVESGGGLVQAGGSLRLSSAASGSIFFRNAMGWYRKAPGKERELVAAISRSGGNTYYADSVKGRFTISRDNAKNTVYLQMNSLKPEDTAVYYCAKYRTLYWYDYWGQGTQVTVSS | high polyreactivity
QVQLVESGGGLVQAGGSLRLSSAASGSIFIPYAMGWYRQAPGKERELVAAISSSGSTYYADSVKGRFTISRDNAKNTVYFQMNSLKPEDTAVYYCAAAWHTAYWDGSDTLGGGYWGQGTQVTVSS | low polyreactivity
QVQLVESGGGLVQAGGSLRLSSAASGSIFTYYAMGWYRQAPGKERELLASISRHGGSTYYADSVKGRFTISRDNAKNTVYLQMNSLKPEDTAVYYCNARGWHTKVVSPRYYWGQGTQVTVSS | high polyreactivity
QVQLVESGGGLVQAGGSLRLSSAASGSIFVLYAMGWYRQAPGKERELVAAIDVGGGSTYYADSVKGRFTISRDNAKNTVYLQMNSLKPEDTAVYYCAAELYYTYRWYDYWGQGTQVTVSS | high polyreactivity
QVQLVESGGGLVQAGGSLRLSSAASGSILSYNAMGWYRQAPGKERELVASITGTGRSTRYADSVKGRFTISRDNAKNSVYLQMNSLKPEDTAVYYCATAAWWYYRIYHEFGYWGQGTQVTVSS | high polyreactivity
QVQLVESGGGLVQAGGSLRLSSAASGSNFWYYAMGWYRQSPGKERELVAAISAISGTTYYADSEKGRFTISRDNAKNTVYLQMNSLKPEDTAVYYCNKDASWWTDRSYDYWGQGTQVTVSS | low polyreactivity

Sequence | polyreactivity (PSR sort gate)
QVQLVESGGGLVQAGGSLRLSSAASGSTFAFNAMGWYRHAHGKEREFVARITWSDGSTYYADSVKGRFTISRDNAKNTVYLQMNCLKPEDTAVYYCARDPTEQAIARWTYDYWGQGTQVTVSS | low polyreactivity
QVQLVESGGGLVQAGGSLRLSSAASGSTFEAYTMGWYRPAPGKERELVAAISRSGGSTYYADSVKGRFTISRDNAKNTVYLQMNSLKPEDTAVYYCAASRYIGYNYWGQGTQVNVSS | high polyreactivity
QVQLVESGGGLVQAGGSLRLSSAASGSTFGIYAMGWYRQAPGKERELVAAISSGGSTNYADSVKGRFTISRDNAKNTVYLQMNSLKPEDTAVYYCAVESVYEYGGYVDSAFDYWGQGTQVTVSS | low polyreactivity
QVQLVESGGGLVQAGGSLRLSSAASGSTFGKYARGWYRQAPGKERELVAAITVNAGRTYYADSVKGRFTISRDNAKNTVYLQLNSLKPEDTAVYYCAGVPRRYYARYYYWGQGTQVTVSS | high polyreactivity
QVQLVESGGGLVQAGGSLRLSSAASGSTFGPYPMGWYRPAPGKERELVATISSGGSTYYADSVKGRFTISRDNAKNTVYLQMNSLKPEDTAVYYCAARYWSIYDYWGQGTQVTVSS | low polyreactivity
QVQLVESGGGLVQAGGSLRLSSAASGSTFGYYAMRWYRQAPGKARELVAAISSAGSTNDADSVKGRFTISRDNAKNTVYLQMNSLKPEDTAVYYCAAKVRVRWHTGLVTRDYDCGQGTQVTVSS | high polyreactivity
QVQLVESGGGLVQAGGSLRLSSAASGSTFHLYAMGWYRQAPGKEREFVAAIRGRGGNTYADSVKGRFTISRDNAKNTVYLQMNSLKPEDTAVYYCAAPLLRDLRSPYSYNYWGQGTQVTVSS | low polyreactivity
QVQLVESGGGLVQAGGSLRLSSAASGSTFIGNAMGWYRQAPGTARELVAAITRSGGSTFYADSVKGRFTISRDNAKNTVYLQMNSLKPDDTAVYYCASKGNPYRVPCSSYPKVNYWGQGTQVTVSS | high polyreactivity
QVQLVESGGGLVQAGGSLRLSSAASGSTFQLYAMRLYRQAPGKETELVAAISGIGDSTYYADSVKGGFTISRDNAKNTVYLQMNSLKPEDTAVYYCAREFSDGLSGKFDYWGQGTQVTGSS | low polyreactivity
QVQLVESGGGLVQAGGSLRLSSAASGSTFSDYAMGWYRQAPGKERELVAGITGGGGTYYADSVKGRFTISRDNAKNTVYLQMNSLKPEDTAVYYCAAGRRHGFGYWGQGTQVTVSS | low polyreactivity
QVQLVESGGGLVQAGGSLRLSSAASGSTFTVNGMGWYSQAPGKERELVAAIDGGDGSTYYADSVKGRFTISRDNAKNTVYLQMTSLKPEDTAVYYCAADPPGFTQYGYWGQGTQVTVSS | low polyreactivity
QVQLVESGGGLVQAGGSLRLSSAASGSTFWVNTMGWYRQAPGKERELVAGSTSNGGSTSYADSVKGRFTITRDNAKNTVYLQKNSLKPEDTAVYYCNADTYPDYWAYLYDYWGQGTQVTVSS | low polyreactivity
QVQLVESGGGLVQAGGSLRLSSAASGSTFYQYAMGWYRQAPGKERELVAAISWDSGSTYYADSVKGRFTISRDNAKNTVYLQMNSLKPEDTAVYYCAASWYGYYDGYAVEYDYWGQGTQVTVSS | low polyreactivity
QVQLVESGGGLVQAGGSLRLSSAASGSTFYYNAMGWYRQAPGKEREFVAAITYTGGSTDYADSVKGRFTISRDNAKNTVYLQMNSLKPEDTAVYYCAKGTYGYISTWYDYWGQGTQVTVSS | low polyreactivity
QVQLVESGGGLVQAGGSLRLSSAASGSTIVLYTMGWYRQAPGKEWELVAAITNGTRTYYADSVKGRFTISRDNAKNTVYLQMNSLKPQDTAVYYCAVDGVKRGADLFYYWGHGTQVTVSS | high polyreactivity
QVQLVESGGGLVQAGGSLRLSSAASGSTLQYNAMGWYRQAPGKERELVASITWSDGSTYYADSVKGRFTISRDNAKNTVYLQMNSLKPEDTAVYYCNRDDQPALWSSGGYNYWGQGTQVTVSS | high polyreactivity
QVQLVESGGGLVQAGGSLRLSSAASGSTLVYYDRGWYRQAPGKERELVATITGTDSTYYADSVKGRFTISRDNAKNTVYLQMNSLKPVDTADCAADRAASRPVYDYWGQGTQVTVSS | low polyreactivity
QVQLVESGGGLVQAGGSLRLSSAASGSTSCPYAMGWYRQAPGKERELVATISWIGDRTYYADSVKGRFTISRDNAKNTFYLQMNSLKPEDTAVYYCNADYRGYANLEGDYWGQGTQVTVSS | low polyreactivity
QVQLVESGGGLVQAGGSLRLSSAASGYIFDLNAMGRYRQAPGKERELVAAISTGGGTYYADSVKGRFTISRDNAKNTVYLQMNSLKPEDTAVYYCAADWGYWYAEYDYWGQGTLVTVSS | low polyreactivity
QVQLVESGGGLVQAGGSLRLSSAASGYTYYVYAMGWYRQAPGKERELVAAISGGSNTYYADSVKGRFTISRDNAKNTVYLQMNSRKPEDTAVFYCAKSSTTYRQRARYDYWGLGTQVTVSS | high polyreactivity
QVQLVESGGGLVQAGGSLRLSSAATGRTFPSNAMGWYRQAPGKERELVAAISVSSGRTYYADSVKGRFTISRDNAKNTVYLLMNSLKPEDTAVYYCAALWARYPYLFGFDYWGQGTQVTVSS | high polyreactivity
